Measurements taken from the supplement of paper PMC7125110.
± gives the standard error. Variants at the floor of the assay were thinned out.

B1: glmS ribozyme (parent)
chain: AUAAAAGCGCCAGAACUACAGAAAUGUAGUUGACGAGGAGGAGGUUUAUCGAAUUUUCGGCGGAUGCCUCCAAA

Experiments:
Details in all cases: with glucosamine-6-phosphate
glucosamine-6-phosphate [1] = variants of: B1; assay: self-cleavage kobs at 160 uM GlcN6P; higher = faster cleavage; RNA array
Outline: (§1)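 Weighted Michaelis–Menten fits across concentrations supplied kcat and KM, based on kobs from one- or two-exponential decay fits to normalised per-tile medians. The data came from barcoded ribozyme variants transcribed in situ by E. coli RNA polymerase on sequenced MiSeq chips and tracked at 37 °C by a hybridised Cy3 probe. Glucosamine-6-phosphate (40 μM to 10 mM) in HEPES/KCl/Mg(OAc)2 buffer was flowed in.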

glucosamine-6-phosphate [2] = variants of: B1; assay: self-cleavage kobs at 640 uM GlcN6P; higher = faster cleavage; RNA array
Outline: as §1

glucosamine-6-phosphate [3] = variants of: B1; assay: self-cleavage kobs at 2500 uM GlcN6P; higher = faster cleavage; RNA array
Outline: as §1

glucosamine-6-phosphate [4] = variants of: B1; assay: self-cleavage kobs at 40 uM GlcN6P; higher = faster cleavage; RNA array
Outline: as §1

glucosamine-6-phosphate [5] = variants of: B1; assay: self-cleavage kobs at 10000 uM GlcN6P; higher = faster cleavage; RNA array
Outline: as §1

| Variant | self-cleavage kobs at 160 uM GlcN6P (glucosamine-6-phosphate [1]) [s⁻¹] | self-cleavage kobs at 640 uM GlcN6P (glucosamine-6-phosphate [2]) [s⁻¹] | self-cleavage kobs at 2500 uM GlcN6P (glucosamine-6-phosphate [3]) [s⁻¹] | self-cleavage kobs at 40 uM GlcN6P (glucosamine-6-phosphate [4]) [s⁻¹] | self-cleavage kobs at 10000 uM GlcN6P (glucosamine-6-phosphate [5]) [s⁻¹] |
| --- | --- | --- | --- | --- | --- |
| AUAAACGCGCCAGAAUUACAGAAAUGUAGUUGACGAGGAAGAGGUUUAUCGAAUUUCCGGCGGAUGCCACCAAA [A6C C16U G40A U57C U69A] | < 1e-05 | – | – | – | – |
| AUAAAGGCGCCAGUACUACAGAAAUGUAGUUGACGAGGAGGAGGUUUGUCGAAUUUUCGGCGUAUGCCUCCAAA [A6G A14U A48G G63U] | < 1e-05 | < 1e-05 | < 1e-05 | – | – |
| AUAAAAGCGCCAGAACUACAGAAAUGUAGUUGACGAGGAGGAGGUUUAUCGAAUUUUCGGCGGAUGCCUACAAA [C70A] | 0.000416 ± 0.00014 | 0.00093 ± 0.00021 | 0.000583 ± 4.1e-05 | 0.000267 ± 7.7e-05 | 0.00384 ± 0.0011 |
| AUAAAAGCGCCAGAACUACAGAAAUGUAGUUGACGAGGAGGAGGUUUAUCGAAUUUUCGGCGGAUGCCUUCAAA [C70U] | 0.00417 ± 0.00021 | 0.0095 ± 0.00039 | 0.0161 ± 0.0012 | 0.00149 ± 4.2e-05 | 0.0554 ± 0.0035 |
| AUAAAAGCGCCAGAACUACAGAAAUGUAGUUGACGAGGAGGAGGUUUAUCGAAUUUUCGGCGGAUGCCUGCAAA [C70G] | 0.000401 ± 9.4e-05 | 0.0014 ± 0.00021 | 0.000576 ± 4.7e-05 | 0.000246 ± 5.2e-05 | 0.00395 ± 0.00093 |
| AUAAAGGCGCCAGAACUACAGAAAUGUAGUUGACGAGGAGGAGGUUUAUCGAAUUUUUGGCGGACGCCUCCAAA [A6G C58U U65C] | < 1e-05 | – | < 1e-05 | – | – |
| AUAAACGCGCCAGAACUACAGAAAUGUAGUUGACCAGGAGGAGGUAUAUCGAAUUUUCGGAGGAUGCCUCCAAA [A6C G35C U46A C61A] | < 1e-05 | < 1e-05 | < 1e-05 | – | – |
| AUAAAGGCGCCAGAACUACAGAAAUGUAGUUGACGAGGAGGAGGUUUAUUGAAUCUUCGGCGGAUGCCUCCAAA [A6G C50U U55C] | < 1e-05 | < 1e-05 | < 1e-05 | – | < 1e-05 |
| AUAAAGGCGCCUGAACUACAGAAAUGUAGUUGACGCGGAGGACGUUUAUCGAAUUUUCGGCGGAUGCCUCCAAA [A6G A12U A36C G43C] | < 1e-05 | < 1e-05 | < 1e-05 | – | – |
| AUAAAGGCGCCAGAACUACAGAAAUGUAGUUGACGAGGAGGAGGUUUAUGGAACUUUCGGCGGAUGCCUCCAAA [A6G C50G U54C] | 5.66e-05 ± 2e-05 | 5.17e-05 ± 2.4e-05 | – | – | – |
| AUAAACCCGCCAGAACUACAGAAAUGUAGUUGCCGAGGAGGAGGUUUAUGGCAUUUUCGGCGGACGCCUCCAAA [A6C G7C A33C C50G A52C U65C] | < 1e-05 | – | – | – | – |
| AUAAACGCGCCAGAUCUACAGAAAUGUAGUUGACGAGGAGGAGGUUUAUCGAAUUUUCGGCGGAUGCCUCGAAA [A6C A15U C71G] | < 1e-05 | – | – | – | – |
| AUAAAGGCGCCAGAACUACAGAAAUGUAGUUGUCGAGGAGGAGGUUUAUCGAAUUUCAGGCGGAUGCCUCCAAA [A6G A33U U57C C58A] | < 1e-05 | < 1e-05 | – | – | – |
| AUAAAGGAGCCAGAACUACAGAAAUGUAGUUGACGAGGAGGAGGUUUCUCGAAUUUUCGGCGGAUGCCUCCAAA [A6G C8A A48C] | < 1e-05 | – | – | – | – |
| AUAAACGCGCCUGAACUACAGAAAUGUAGUUGACGAGGAGAAGGUUUAUCGAAUUUUCGGCGGAUGCCUCCAAA [A6C A12U G41A] | < 1e-05 | < 1e-05 | < 1e-05 | – | – |
| AUAAAGGCGCCAGAUCUACAGAAAUGUAGUUGACGAGGAGGAGGUUUAUCGUAUUUUCGGCGGAUGCCUCCAAA [A6G A15U A52U] | < 1e-05 | < 1e-05 | < 1e-05 | – | – |
| AUAAACGCGCCAGAUUUACAGAAAUGUAGUUGACGAGGAGGAGGUUUAUCGAAUUUUCGGCGGAUGCCUCCAAA [A6C A15U C16U] | < 1e-05 | – | – | – | – |
| AUAAACGCGCCAGAACUACAGAAAUGUAGUUGACGAGGAGUAGGUUUAUCGAAUUUUCGGCGGAUGCUUACAAA [A6C G41U C68U C70A] | < 1e-05 | – | 3.76e-05 ± 1.6e-05 | – | – |
| AUAAACGUGCCAGAACUACAGAAAUGUAGUUGAAGAGGAGGAGGUUUAUCGAAUUUUCGGCGGAUGCCUCCAAA [A6C C8U C34A] | < 1e-05 | < 1e-05 | < 1e-05 | – | – |
| AUAAAAGCGCCAGAACUACAGAAAUGUAGUUGACGAGGAGGAGGUUUAUCGAAUUUUCGGCGGAUGCUGCAAAA [C68U U69G C71A] | – | – | – | < 1e-05 | – |
| AUAAACGCGCCAGAACUACAGAAAUGUAGUUGACGAGGAGGAGGUUUAUCGAAUUUCCGGCGGAUGCCUCCAAA [A6C U57C] | < 1e-05 | < 1e-05 | < 1e-05 | – | < 1e-05 |
| AUAAAGGCGCCAGAACUACAGAAAUGUAGUUGGCGAGGAGGAGGUUUAUCGAAUUUUCGCCGGAUGCCUCCAAA [A6G A33G G60C] | < 1e-05 | < 1e-05 | – | – | – |
| AUAAAGGCGCUAGAUCUACAGAAAUGUAGUUGACGAGGAGGAGGUUUAUUGAAUUUUCGGCGGAUGCCUCCAAA [A6G C11U A15U C50U] | < 1e-05 | – | – | – | < 1e-05 |
| AUAAAGGCGCUAGAACUACAGAAAUGUAGUUGACGAGGAGGACGUUUAUCGAAUUUUCGGCGGAUGCCUCCAAA [A6G C11U G43C] | < 1e-05 | < 1e-05 | – | – | – |
| ACAAAAGCUCCAGAACUACAGAAAUGUAGUUGACGAGGAGGAGGUUUAUCGAAUUUUUGGCGGAUGCCUCCAAA [U2C G9U C58U] | < 1e-05 | – | – | – | < 1e-05 |
| AUAAACGCGCCAGAACUACAGAAAUGUAGUUGACGAGGAGGAGUUUUAUCGAAUUUUCGGCGGAUGCCUCCAAA [A6C G44U] | < 1e-05 | < 1e-05 | < 1e-05 | – | < 1e-05 |
| AUAAAAGCGCCAGAACUACAGAAAUGUAGUUGACGAGGAGGAGGUUUAUCGAAUUUUCGGCGGAUGCCCCGAAA [U69C C71G] | 0.000225 ± 0.00011 | 6.76e-05 ± 1.6e-05 | 7.01e-05 ± 1.5e-05 | 3.93e-05 ± 1.3e-05 | 6.79e-05 ± 9e-06 |
| AUAAACGUGCCAGAACUACAGAAAUGUAGUUGACGAGGAGGAGGUUUAUCGAAUUUUCGGCGGAUGACUUCAAA [A6C C8U C67A C70U] | < 1e-05 | – | – | – | – |
| AUAAACGCGCUAGAAUUACAGAAAUGUAGGUGACGAGGUGUAGGUUUAUCGAAGUUUCGGCGGAUGCCGCCAAA [A6C C11U C16U U30G A39U G41U U54G U69G] | < 1e-05 | – | – | – | – |
